In paper PMC7474069, “Cystathionine β-synthase is involved in cysteine biosynthesis and H2S generation in Toxoplasma gondii” (Scientific Reports, 2020):
“And” between values parts separate entries of the source, which are not always exact repeats. Equal entries are not always repeated.

Tests used:
TgCBS [1] = biological target: T1, TgCBS (Toxoplasma gondii, UniProt A0A125YSJ9); experiment: lead acetate H2S assay, substrate competition; type: biochemical
T1 construct: gene TGME49_259180; mainly dimer with some tetramer; no heme, PLP at Lys56
T1 sequence (A0A125YSJ9 1-514): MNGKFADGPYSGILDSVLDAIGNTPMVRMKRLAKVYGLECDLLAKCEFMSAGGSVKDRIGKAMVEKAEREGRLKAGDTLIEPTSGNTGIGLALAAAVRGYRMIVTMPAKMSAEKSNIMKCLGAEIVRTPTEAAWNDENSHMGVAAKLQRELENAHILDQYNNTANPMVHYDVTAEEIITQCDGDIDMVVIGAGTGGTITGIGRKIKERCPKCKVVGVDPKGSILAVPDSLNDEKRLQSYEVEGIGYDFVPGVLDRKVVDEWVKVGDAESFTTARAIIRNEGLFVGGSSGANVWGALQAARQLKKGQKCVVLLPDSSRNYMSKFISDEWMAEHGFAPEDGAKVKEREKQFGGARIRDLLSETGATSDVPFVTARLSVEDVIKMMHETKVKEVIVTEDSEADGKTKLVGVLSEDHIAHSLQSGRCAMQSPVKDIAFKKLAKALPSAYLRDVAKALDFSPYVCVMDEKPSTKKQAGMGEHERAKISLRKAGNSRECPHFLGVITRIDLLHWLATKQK
From the text: lead acetate H2S assay, substrate competition on TgCBS | The IC50 value, i.e. the concentration of L-Ser at which the H2S production

TgCBS [2] = biological target: T1, TgCBS; experiment: intrinsic fluorescence titration of apo-enzyme; type: binding
TgCBS [3] = biological target: T1, TgCBS; experiment: CD spectroscopy (aminoacrylate formation); type: binding; conditions: 3 mM; 20 mM sodium phosphate pH 8.5; 25 °C
TgCBS [4] = biological target: T1, TgCBS; experiment: CD spectroscopy (external aldimine formation); type: binding; conditions: 25 mM; 20 mM sodium phosphate pH 8.5; 25 °C; substrate analog
[5] = test system: N[C@@H](CCSC[C@H](N)C(=O)O)C(=O)O; experiment: purified protein; conditions: CBS coupled-assay conditions (MBP buffer pH 9; 37 °C)
N[C@@H](CO)C(=O)O = experiment: purified protein; conditions: CBS coupled-assay conditions (MBP buffer pH 9; 37 °C)
TgCBS [6] = biological target: T1, TgCBS; experiment: lead acetate H2S assay, biphasic fit; type: biochemical; conditions: substrate inhibition in beta-elimination; L-Cys alone; 50 mM Hepes pH 7.4; 37 °C; PLP 20 µM
From the text: (§1) lead acetate H2S assay, biphasic fit on TgCBS

purified protein [7] = substrate: CC(=O)OC[C@H](N)C(=O)O; experiment: purified protein; type: biochemical, Toxoplasma gondii; conditions: co-substrate L-Hcys, MBP buffer pH 9, 37 °C, PLP 20 µM
purified protein [8] = substrate: N[C@@H](CCS)C(=O)O; experiment: purified protein; type: biochemical, Toxoplasma gondii; conditions: co-substrate L-Ser, MBP buffer pH 9, 37 °C, PLP 20 µM
purified protein [9] = substrate: N[C@@H](CO)C(=O)O; experiment: purified protein; type: biochemical, Toxoplasma gondii; conditions: co-substrate L-Hcys, MBP buffer pH 9, 37 °C, PLP 20 µM
[10] = substrate: N[C@@H](CS)C(=O)O; experiment: lead acetate H2S assay, biphasic fit; type: biochemical, Toxoplasma gondii; conditions: beta-elimination of L-Cys alone, site 1, 50 mM Hepes pH 7.4, 37 °C, PLP 20 µM
From the text: as §1

[11] = biological target: the molecule itself; experiment: SEC; Superdex 200 10/30 GL, TgCBS at 1 mg/mL, 20 mM sodium phosphate pH 8.5, 150 mM NaCl, 0.1 mM DTT; masses from a calibration curve of standard proteins

N[C@@H](CO)C(=O)O [L-Ser]
IC50 (TgCBS [1]): 6.7 ± 1.3 mM

Cc1ncc(COP(=O)(O)O)c(C=O)c1O [PLP]
Kd (TgCBS [2]): 130 ± 10 nM

NC(CSCC(N)C(=O)O)C(=O)O (stereo not shown) [lanthionine]
CD spectroscopy (aminoacrylate formation) (TgCBS [3]): Binding of lanthionine to the enzyme

C[C@H](N)C(=O)O [L-Ala]
CD spectroscopy (external aldimine formation) (TgCBS [4]): Addition of the analog L-alanine (L-Ala) to TgCBS resulted in a shift

recombinant CBL (Corynebacterium diphtheriae NCTC 13129)
Km [5]: 0.8 ± 0.1 mM
kcat [5]: 93 ± 2 s⁻¹
Km (N[C@@H](CO)C(=O)O): 7.5 ± 1.4 mM
kcat (N[C@@H](CO)C(=O)O): 1.2 ± 0.2 s⁻¹

N[C@@H](CS)C(=O)O [L-Cys]
TgCBS (TgCBS [6]): 36 ± 4 mM

B1: TgCBS (Toxoplasma gondii ME49) (protein)
chain: T1 sequence (A0A125YSJ9 1-514)
notes: mainly dimer with some tetramer; no heme, PLP at Lys56
Km (purified protein [7]): 1.3 ± 0.2 mM
kcat (purified protein [7]): 5.5 ± 0.1 s⁻¹
kcat/Km (purified protein [7]): 4200 ± 700 M⁻¹ s⁻¹
Km (purified protein [8]): 0.23 ± 0.03 mM
kcat (purified protein [8]): 6.3 ± 0.4 s⁻¹
kcat/Km (purified protein [8]): 27000 ± 5000 M⁻¹ s⁻¹
Km (purified protein [9]): 0.42 ± 0.04 mM
kcat (purified protein [9]): 6.3 ± 0.4 s⁻¹
kcat/Km (purified protein [9]): 15000 ± 2000 M⁻¹ s⁻¹
Km [10]: 4.7 ± 0.9 mM
kcat [10]: 2.6 ± 0.3 s⁻¹
kcat/Km [10]: 600 ± 200 M⁻¹ s⁻¹

B2: Cystathionine β-synthase from Toxoplasma gondii (enzyme, Toxoplasma gondii (strain ME49), UniProt A0A125YSJ9 1-514, looked up)
chain: T1 sequence (A0A125YSJ9 1-514)
modifications: PLP bound to active site Lys56 (internal aldimine)
notes: Cystathionine β-synthase, Toxoplasma gondii strain ME49, gene TGME49_259180 (ToxoDB), complete cDNA as a synthetic gene; 514 amino acids (55.8 kDa); Cloned into pET21a (NdeI/BamHI); Mainly a dimer in solution, with some higher-order oligomers (e.g. tetramer); also called TgCBS; T. gondii CBS; source: E. coli Rosetta (DE3), purified (Ni-sepharose)
stoichiometry N [11]: 2 and 4
